Our source for the variant/wild-type values is patent US20120108796A1 (Bayer, published 2012).

The test concerns the target T1, human TFPI (tissue factor pathway inhibitor) (human, UniProt P10646 29-304, limits assumed).
T1 construct: bought protein, coated on ELISA plates or amine-coupled to a CM5 chip; also called hTFPI
T1 sequence (looked up): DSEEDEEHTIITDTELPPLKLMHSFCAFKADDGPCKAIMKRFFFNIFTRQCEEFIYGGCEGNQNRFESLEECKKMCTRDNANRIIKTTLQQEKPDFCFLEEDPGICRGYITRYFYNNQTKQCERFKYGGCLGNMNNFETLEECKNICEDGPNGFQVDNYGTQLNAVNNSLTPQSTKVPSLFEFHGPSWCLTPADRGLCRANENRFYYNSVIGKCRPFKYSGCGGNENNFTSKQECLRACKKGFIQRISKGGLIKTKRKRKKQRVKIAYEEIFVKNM
The test is described as follows: competitive ELISA. On the procedure:
Briefly, MTP plates (either Mesoscale Discovery, L21XA-4 or Nunc maxisorp black, 460518) were coated with 0.04-2 lug/m1 either human or mouse TFPI diluted in phosphate buffered saline (PBS) or in coating buffer (Candor Bioscience GmbH, 121500), respectively and incubated over night at 4° C. After washing, plates were blocked with 3% bovine serum albumin (Sigma, A4503) in PBST for 1 hour at room temperature and the washing step was repeated. For binding of the antibodies 10-25 µl of culturing supernatants normalized to their respective antibody expression level (if not otherwise indicated) were added to the plates for 1 hour at RT followed by washing with PBST. Bound wild-type and variants were then either detected by an epitope tag specific antibody or a competition step was included. For competition, 50-300 nM competitor or free antigen was added and incubated for 20 minutes to 24 hours at room temperature. […] For signal detection in maxisorp plates 10 [tM amplex red substrate (Invitrogen, A12222) was added and incubated for 10 to 30 minutes at room temperature in the dark followed by fluorescence measurement. For the detection in MSD plates MSD read buffer T was diluted to 2× in H2O (Mesoscale Discovery, R92TC-1), added to the plates and the electrochemiluminiscence signal was detected at 620 nm using the Mesoscale Discovery Sector Imager 6000. […]
In general terms: An ELISA detects its analyte on a solid surface through an enzyme-linked reagent.

B1: 4B7 HC H107M LC F31I (Fab, V domains shown)
VH: QVQLQQSGPGLVKPSQTLSLTCAISGDSVSSNSAAWSWIRQSPGRGLEWLGIIYKRSKWYNDYAVSVKSRITINPDTSKNQFSLQLNSVTPEDTAVYYCARWHSDKMWGFDYWGQGTLVTVSS
VL: DIVMTQSPLSLPVTPGEPASISCRSSQSLVISDGNTYLNWYLQKPGQSPQLLIYKGSNRASGVPDRFSGSGSGTDFTLKISRVEAEDVGVYYCQQYDSYPLTFGQGTKVEIKR
notes: Fab; tags as m115; also called HC H107M LC F311 (so in the source)
In turn, B1 came in with a variant/wild-type of 3.7 ratio.
